Assay results from article doi:10.1101/2022.06.29.497979, “Cryo-EM structure of a eukaryotic zinc transporter at a low pH suggests its Zn^2+-releasing mechanism” (bioRxiv, 2022).

Target: the molecule itself
Assay: cryo-EM structure; xtZnT8-Zn^2+: single-particle cryo-EM, 20 mM Tris-HCl pH 7.5, 150 mM NaCl, 5 mM beta-mercaptoethanol, 0.5 mM DDM, 1 mM ZnSO4; 3.9 A

B1: ZnT8 from Xenopus tropicalis, xtZnT8-BRIL fusion protein (natural protein, UniProt Q5XHB4 1-374, looked up)
chain: MKGSEEAYLVSDKATKMYSLTKDSEKNHPSKPPLQDEENPQSKYHCHNNNKKAYDARQREQTFAKKKLCIASLICFVFISAEIVGGYIAGSLAVVTDAAHLLVDLSSFFISLCSLWLSSKSSTTRLTFGWHRAEILGALMSVITIWLVTGVLVYLACERLIRPDYTIDGTVMLITSACALGANLVLALILHQSGHGHSHAGGKHEHMASEYKPQTNASIRAAFIHVIGDLFQSISVLISALIIYFKPEYKMADPICTFIFSIFVLITTVTVLRDLLTVLMEGTPRGIHYSDVKQSILAVDGVKSVHSLHLWALTMNQVILSAHIATDIVGESKRILKDVTQNVFARFPFHSVTIQVEPIEDQSPECMFCYEPTQ
notes: Zinc transporter 8 (ZnT8, SLC30A8) from Xenopus tropicalis, full-length wild type, NCBI NP_001011041.1; BRIL was fused to the carboxy-end of xtZnT8 before the TEV site and His10; it is written as a carrier under tags; also called zinc transporter 8; xtZnT8-Zn^2+; not shown: BRIL (bacterial cytochrome b562RIL), C-terminal, kept
stoichiometry N: 2
